{"source": "paper PMC5492076", "about": "“β-Cyanoalanine Synthases and Their Possible Role in Pierid Host Plant Adaptation” (Insects, 2017)", "proteins": {"B1": {"name": "AcrBSAS3 (Aporia crataegi) (protein)", "chain": "MTNAISVSNEIKASALELIGNTPLLALDRLHPGPGRILVKCEFMNPGGSLKCRSSLHMIQKARERGELKPGGDVVEVTSGNQGCGLGVVCSVLGHPLTVTMSKGNSIQRALHMEALGAKCIRYPLVKGTYGNVTFADVEPALEGAMKMSEETGAFFVKQMANPDNIEAHYETTGPEIWRQSGHRVDAFVTAVGTSGTFTGVSKYLKEQNPEIQCFVVEPEGSQPLKGCPITKPLHMLQGASYGVVPDLFNPDLMEDSISVTDEESVHYKDLLGTKEGLFVGYTSGANVAAAVKLLNSGKLPKDAWVVTILSDTGLKYTPVPDNLIE", "notes": "N-terminal Strep-tag, E. coli BL21(DE3) pLysS; Strep-Tactin purified"}}, "substrate": "N[C@@H](CS)C(=O)O", "test": "colorimetric sulfide formation, Michaelis-Menten fit", "assay_type": "biochemical, Aporia crataegi", "details": "6 mM KCN, 20 µM pyridoxal-5'-phosphate, Tris-HCl pH 8.5, 31 °C, 10 min", "excerpt": "colorimetric sulfide formation, Michaelis-Menten fit on AcrBSAS3"}
{"protein": "B1", "values": [{"measurement": "Km", "value": "1.31 (±0.08) mM"}, {"measurement": "Vmax", "value": 1.12, "unit": "µmol/min/mg"}]}
